Laboratory results reported in IntAct's records for PubMed 22995871.

Molecular target: mare1_mouse Mapre1 (UniProt Q61166)
Sequence (Q61166 whole entry): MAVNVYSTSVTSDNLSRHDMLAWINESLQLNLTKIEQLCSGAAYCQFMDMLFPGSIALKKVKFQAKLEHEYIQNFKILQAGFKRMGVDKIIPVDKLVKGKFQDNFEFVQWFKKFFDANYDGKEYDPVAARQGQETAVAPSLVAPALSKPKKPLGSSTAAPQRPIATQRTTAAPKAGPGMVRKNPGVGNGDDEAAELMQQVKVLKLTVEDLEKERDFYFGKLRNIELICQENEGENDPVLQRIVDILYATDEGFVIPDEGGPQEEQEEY

Substance | effect of a mutation on the interaction
Dystonin (Homo sapiens), Q03001 D7248A | disrupting interaction
Dystonin (Homo sapiens), Q03001 D7246A | disrupting interaction
Dystonin (Homo sapiens), Q03001 D7250A | disrupting interaction
